Results published in patent US20240181007A1, “COMPOSITIONS AND METHODS FOR TREATING PULMONARY HYPERTENSION” (Acceleron Pharma Inc., priority 2021, published 2024).

How the values were obtained:
[1] = target: T1, BMP9 (Homo sapiens, UniProt Q9UK05); test: A204 cell-based pGL3(CAGA)12 reporter gene assay, signaling by BMP9; conditions: for Inhibitory Potency of Homodimeric ActRIIB-Fc Constructs IC50 BMP9: Table 5, A204 cells, luciferase reporter, ND: not detectable over concentration range tested
T1 sequence (Q9UK05 320-429): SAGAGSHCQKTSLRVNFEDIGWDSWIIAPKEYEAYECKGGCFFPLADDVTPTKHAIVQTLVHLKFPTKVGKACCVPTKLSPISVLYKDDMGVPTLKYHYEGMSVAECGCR
Text: (§1) To determine activity of variant ActRIIB-Fc polypeptides, an A204 cell-based assay was used to compare effects among variant ActRIIB-Fc polypeptides on signaling by activin A, activin B, GDF8, GDF11, BMP9, and BMP10, in comparison to ActRIIB-G1Fc. In brief, this assay uses a human A204 rhabdomyosarcoma cell line (ATCC®: HTB-82™) derived from muscle and the reporter vector pGL3(CAGA)12 (Dennler et al., 1998, EMBO 17: 3091-3100) as well as a Renilla reporter plasmid (pRLCMV) to control for transfection efficiency. The CAGA12 motif is present in TGF-β responsive genes (e.g., PAI-1 gene), so this vector is of general use for ligands that can signal through Smad2/3, including activin A. GDF11, and BMP9.
(§2) On day 1. A204 cells were transferred into one or more 48-well plates. On day 2, these cells were transfected with 10 μg pGL3(CAGA)12 or pGL3(CAGA)12(10 μg)+pRLCMV (1 pg) and Fugene. On day 3, ligands diluted in medium containing 0.1% BSA were preincubated with ActRIIB-Fc polypeptides for 1 hr before addition to cells. Approximately six hour later, the cells were rinsed with PBS and lysed. Cell lysates were analyzed in a luciferase assay to determine the extent of Smad activation.
(§3) This assay was used to screen variant ActRIIB-Fc polypeptides for inhibitory effects on cell signaling by activin A, activin B. GDF8, GDF11. BMP9, and BMP10. Potencies of homodimeric Fc fusion polypeptides incorporating amino acid substitutions in the human ActRIIB extracellular domain were compared with that of an Fc fusion polypeptide comprising unmodified human ActRIIB extracellular domain, ActRIIB-G1Fc. For some variants tested, it was not possible to calculate an accurate IC50, but signs of inhibition in the slope of the curves were detectable. For these variants, an estimate was included of the order of magnitude of the relative IC50, i.e. >10 nM or >100 nM instead of a definite number. Such data points are indicated by a (*) in Table 3 below. For some variants tested, there was no detectable inhibition in the slope of the curves over the concentration range tested, which is indicated by “ND” in Table 4.
as §1, with “A,” for “A, activin B, GDF8,”, “GDF11,” for “GDF11, BMP9,”, “and BMP9.” for “and BMP10, in comparison to ActRIIB-G1Fc.”, “(Dennler el” for “(Dennler et”, “activin A,” for “activin A.”
as §2, with “1, A-204” for “1. A204”, “μg)” for “pg)”
(§4) This assay was used to screen variant ActRIIB-Fc polypeptides for inhibitory effects on cell signaling by activin A, GDF11, and BMP9. Potencies of homodimeric Fc fusion polypeptides incorporating amino acid substitutions in the human ActRIIB extracellular domain were compared with that of an Fc fusion polypeptide comprising unmodified human ActRIIB extracellular domain.

[2] = target: T2, GDF11 (Homo sapiens, UniProt O95390); test: A204 cell-based pGL3(CAGA)12 reporter gene assay, signaling by GDF11; conditions: for Inhibitory Potency of Homodimeric ActRIIB-Fc Constructs IC50 GDF11: Table 5, A204 cells, luciferase reporter, ND: not detectable over concentration range tested
T2 sequence (O95390 299-407): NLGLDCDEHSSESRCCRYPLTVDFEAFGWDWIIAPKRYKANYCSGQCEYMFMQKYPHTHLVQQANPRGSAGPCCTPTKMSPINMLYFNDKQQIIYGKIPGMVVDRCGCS
Text: as §1, §2, §3
as §1, with “A,” for “A, activin B, GDF8,”, “GDF11,” for “GDF11, BMP9,”, “and BMP9.” for “and BMP10, in comparison to ActRIIB-G1Fc.”, “(Dennler el” for “(Dennler et”, “activin A,” for “activin A.”
as §2, with “1, A-204” for “1. A204”, “μg)” for “pg)”
as §4

[3] = target: T3, Activin A (Homo sapiens, UniProt P08476); test: A204 cell-based pGL3(CAGA)12 reporter gene assay, signaling by activin A; conditions: for Inhibitory Potency of Homodimeric ActRIIB-Fc Constructs IC50 Activin A: Table 5, A204 cells, luciferase reporter
T3 sequence (P08476 311-426): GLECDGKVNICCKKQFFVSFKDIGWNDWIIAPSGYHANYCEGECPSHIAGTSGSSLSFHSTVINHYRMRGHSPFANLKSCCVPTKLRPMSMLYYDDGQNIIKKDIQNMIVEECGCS
Text: as §1, §2, §3
as §1, with “A,” for “A, activin B, GDF8,”, “GDF11,” for “GDF11, BMP9,”, “and BMP9.” for “and BMP10, in comparison to ActRIIB-G1Fc.”, “(Dennler el” for “(Dennler et”, “activin A,” for “activin A.”
as §2, with “1, A-204” for “1. A204”, “μg)” for “pg)”
as §4

[4] = target: T1, BMP9; test: Biacore-based binding assay (surface plasmon resonance), BMP9; conditions: SPR 37° C., FIG. 9, compared to Fc fusion with unmodified ActRIIB extracellular domain
Description: (§5) To determine ligand binding profiles of variant ActRIIB-Fc homodimers, a Biacore™-based binding assay was used to compare ligand binding kinetics of certain variant ActRIIB-Fc polypeptides. ActRIIB-Fc polypeptides to be tested were independently captured onto the system using an anti-Fc antibody. Ligands were then injected and allowed to flow over the captured receptor protein. ActRIIB-G1Fc was used as the control polypeptide.
as §5, with “protein.” for “protein. ActRIIB-G1Fc was used as the control polypeptide.”
A Biacore™-based binding assay was used to compare the ligand binding kinetics of an ActRIIB-Fc:ActRIIB(L79E)-Fc heterodimer with those of unmodified ActRIIB-Fc homodimer. Fusion proteins were captured onto the system using an anti-Fc antibody. Ligands were then injected and allowed to flow over the captured receptor protein at 37° C. Results are summarized in the table below, in which ligand off-rates (kd) most indicative of effective ligand traps are denoted in bold.

[5] = target: T4, GDF11 (UniProt O95390 299-407); test: cell-based or functional assay
T4 construct: also called Growth and differentiation factor-11; BMP11
T4 sequence (looked up): T2 sequence (O95390 299-407)

| Substance | Inhibitory Potency of Homodimeric ActRIIB-Fc Constructs IC50 BMP9 [1] [µg/mL] | Inhibitory Potency of Homodimeric ActRIIB-Fc Constructs IC50 GDF11 [2] [µg/mL] | Inhibitory Potency of Homodimeric ActRIIB-Fc Constructs IC50 Activin A [3] [µg/mL] | other results |
| --- | --- | --- | --- | --- |
| A24N: homodimeric ActRIIB-Fc fusion, A24N substitution in human ActRIIB extracellular domain | 0.409 | 0.099 | 0.128 |  |
| E50K: homodimeric ActRIIB-Fc fusion, E50K substitution in human ActRIIB extracellular domain | 0.721 | 0.18 | 0.132 |  |
| E52A: homodimeric ActRIIB-Fc fusion, E52A substitution in human ActRIIB extracellular domain | 0.359 | 0.071 | 0.198 |  |
| E52K: homodimeric ActRIIB-Fc fusion, E52K substitution in human ActRIIB extracellular domain | ~10 | 0.296 | 0.762 |  |
| F82I: homodimeric ActRIIB-G1Fc fusion with F82I substitution; mature SEQ ID NO: 39 |  |  |  | inhibition of BMP9 compared to fusion polypeptide with unmodified ActRIIB extracellular domain (in words) ([1]; A204 reporter gene assay): less potent inhibition of BMP9; selectivity of antagonism (activin A and GDF11 over BMP9) compared to unmodified ActRIIB-Fc ([1]; A204 reporter gene assay): more selective antagonists of activin A and GDF11; reduction in affinity for BMP9 compared with reduction in affinity for GDF11 or activin A [4]: reduce ActRIIB binding affinity for BMP9 more than they reduce ActRIIB affinity for activin A or GDF11; reduction in affinity for BMP9 compared with reduction in affinity for GDF11 or activin A ([4]; listed as ActRIIB(F82I)-Fc): greater reduction in their affinity for BMP9 than for GDF11; inhibition of GDF11 compared to fusion polypeptide with unmodified ActRIIB extracellular domain (in words) ([2]; A204 reporter gene assay): essentially undiminished inhibition of activin A and GDF11; inhibition of activin A compared to fusion polypeptide with unmodified ActRIIB extracellular domain (in words) ([3]; A204 reporter gene assay): essentially undiminished inhibition of activin A and GDF11 |
| F82W (homodimeric ActRIIB-Fc construct) (Fc fusion) |  |  |  | IC50 (ng/ml), A204 CAGA12 luciferase reporter assay [5]: 276 ng/mL |
| K55D: homodimeric ActRIIB-Fc fusion, K55D substitution in human ActRIIB extracellular domain | 5.5 | 0.365 | 0.396 |  |
| K55R: homodimeric ActRIIB-Fc fusion, K55R substitution in human ActRIIB extracellular domain | 0.777 | 0.318 | 0.206 |  |
| K74R: homodimeric ActRIIB-Fc fusion, K74R substitution in human ActRIIB extracellular domain | 0.165 | 0.045 |  |  |
| L79R (homodimeric ActRIIB-Fc construct) (Fc fusion) |  |  |  | IC50 (ng/ml), A204 CAGA12 luciferase reporter assay [5]: 234 ng/mL |
| R40A: homodimeric ActRIIB-Fc fusion, R40A substitution in human ActRIIB extracellular domain | 1.21 | 0.591 |  |  |
| Y60K (homodimeric ActRIIB-Fc construct) (Fc fusion) |  |  |  | IC50 (ng/ml), A204 CAGA12 luciferase reporter assay [5]: 414 ng/mL |
| Y60P (homodimeric ActRIIB-Fc construct) (Fc fusion) |  |  |  | IC50 (ng/ml), A204 CAGA12 luciferase reporter assay [5]: 544 ng/mL |
| Y60P: homodimeric ActRIIB-Fc fusion, Y60P substitution in human ActRIIB extracellular domain |  | 0.544 |  |  |

Now from value to substance, other results behind:

| Inhibitory Potency of Homodimeric ActRIIB-Fc Constructs IC50 BMP9 [1] [µg/mL] | Inhibitory Potency of Homodimeric ActRIIB-Fc Constructs IC50 GDF11 [2] [µg/mL] | Inhibitory Potency of Homodimeric ActRIIB-Fc Constructs IC50 Activin A [3] [µg/mL] | Substance | other results |
| --- | --- | --- | --- | --- |
| ~3 | 0.638 | 0.756 | E50P: homodimeric ActRIIB-Fc fusion, E50P substitution in human ActRIIB extracellular domain |  |
| ~40 | 0.389 |  | F82W/N83A: homodimeric ActRIIB-Fc fusion, F82W and N83A substitutions in human ActRIIB extracellular domain |  |
|  | 0.276 |  | F82W: homodimeric ActRIIB-Fc fusion, F82W substitution in human ActRIIB extracellular domain |  |
|  | 0.234 |  | L79R: homodimeric ActRIIB-Fc fusion, L79R substitution in human ActRIIB extracellular domain |  |
|  | 0.414 |  | Y60K: homodimeric ActRIIB-Fc fusion, Y60K substitution in human ActRIIB extracellular domain |  |
